Data on 3 molecules can be found in patent publication US20230116446A1 (QILU PUGET SOUND BIOTHERAPEUTICS, published 2023).

In assay [1] the target is T1, human Claudin 18 splice variant 2 (hCLDN18.2) (human, UniProt P56856-2 1-261).
T1 construct: whole, on cells; Tetra-spanning membrane protein; tested only on cells
T1 sequence (looked up): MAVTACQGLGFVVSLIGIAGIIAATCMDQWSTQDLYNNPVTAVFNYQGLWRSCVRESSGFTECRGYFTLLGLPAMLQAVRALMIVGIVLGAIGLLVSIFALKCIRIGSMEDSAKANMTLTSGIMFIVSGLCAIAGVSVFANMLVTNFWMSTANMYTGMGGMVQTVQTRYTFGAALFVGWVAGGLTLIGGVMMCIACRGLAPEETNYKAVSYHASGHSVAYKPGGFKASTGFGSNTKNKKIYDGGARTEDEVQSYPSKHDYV
Briefly: flow cytometry on Expi293 cells stably expressing hCLDN18.2, APC anti-human IgG detection, gMFI. As for the experimental part: Cells stably expressing hCLDN18.2 were spun down at 1500 rpm at room temperature for 5 minutes and resuspended in 1×PBS/1% BSA (washing buffer), antibodies at a 1:3 series dilution ranging from 100 nM to 24 pM were added, cells were incubated at RT with shaking for 1 hour. […] Three additional washes were performed to get rid of unbound antibodies, treated samples were run on an LSRII flow cytometer (BD Biosciences) and signal intensity was determined using the geometric MFI of APC using Flow Jo software (BD Biosciences). Curve fitting and EC₅₀ values were obtained using GraphPad Prism 6 software.
Background: A flow cytometer gives signals particle by particle.

Assay [2] deals with T1, human Claudin 18 splice variant 2 …. Briefly: cell-based or functional assay.
Assay [3] deals with human SIRPα on monocyte-derived macrophages (human, UniProt P78324 31-504). Briefly: cell-based or functional assay.
In assay [4] the target is T2, His6 tagged soluble monomeric extracellular domain (ECD) of hSIRPα v1 (human, UniProt P78324 31-373).
T2 construct: extracellular domain; Made by transient transfection in Expi293 cells; used as monomeric analyte in Biacore; also called huSIRPαv1; huSIRPα-v1; not shown: His6 tag
Briefly: SPR (Biacore T200), antibody captured by anti-human Fc on CM5 chip, monomeric antigen as analyte, 1:1 model. As for the experimental part: (§1) The experiment is described in Example 8. Antibodies were captured to the CM5 chip surface on which goat anti-human polyclonal antibody (Fc specific) was immobilized. Monomeric huSIRPα-v1 and huSIRPα-v2 were used as analytes and were injected for a 2-minute association period followed by a 5-minute dissociation period. Each concentration was run in duplicates. For human SIRPα v1 the incremental concentrations used are 3.13, 6.25, 12.5, 25, 50, 100, […]; For human SIRPα v2 the incremental concentrations used are 0.78, 1.56, 3.13, 6.25, 12.5, or 25 nM. At the end of each analyte injection, the chip was either regenerated with 10 mM glycine-HC1, pH 1.5 (Panels A-D) for multi-cycle kinetics or not regenerated (Panels E-H) for single-cycle kinetics. Data were evaluated using the Biacore T200 Evaluation Software, version 3.2. Data was double referenced then fit with a 1:1 binding model. Panels A and E indicate the binding of anti-hSIRPα×anti-hCLDN18.2 bispecific antibody to hSIRPα v1, panels B and F indicate the binding of anti-hSIRPα #24 IgG antibody to hSIRPα v1, panels C and G indicate the binding of anti-hSIRPα×anti-hCLDN18.2 bispecific antibody to human SIRPα v2, panels D and H indicate the binding of anti-hSIRPα #24 IgG antibody to human SIRPα v2. The x-axis represents the time (seconds), the y-axis represents the RU (Response Units).
(§2) The His6 tagged soluble monomeric extracellular domain (ECD) of hSIRPα v1 and v2 were made by transient transfection in Expi293 cells. Kinetic analysis was performed using surface plasmon resonance (T200, Cytiva) to compare the binding of the anti-hSIRPα×anti-hCLDN18.2 bispecific antibody (SEQ ID NOs:70 and 74) and the parental anti-hSIRPα #24 IgG antibody (SEQ ID NOs:68 and 74) to antigens hSIRPα v1 and hSIRPα v2 (FIG. 15). Either antibody was captured to the CM5 chip surface (Cytiva) by the immobilized goat-anti-human Fc polyclonal antibody, monomeric antigen hSIRPα v1 or v2 was sequentially injected at 6 different concentrations: huSIRPα v1 at 3.13, 6.25, 12.5, 25, 50, 100 nM while hSIPRα v2 at […] with regeneration by 10 mM Glycine-HCl pH1.5 (FIG. 15, panels A-D) for multi-cycle kinetics or without regeneration (FIG. 15, panels E-H) for single-cycle kinetics.
On the technique in general: Surface plasmon resonance follows binding to a sensor surface in real time, without labels.

Assay [5] deals with T3, His6 tagged soluble monomeric extracellular domain (ECD) of hSIRPα v2 (human).
T3 construct: extracellular domain; Made by transient transfection in Expi293 cells; used as monomeric analyte in Biacore; also called huSIRPαv2; huSIRPα-v2
Described as above. As for the experimental part:
as §1, §2

T2 sequence (P78324 31-373): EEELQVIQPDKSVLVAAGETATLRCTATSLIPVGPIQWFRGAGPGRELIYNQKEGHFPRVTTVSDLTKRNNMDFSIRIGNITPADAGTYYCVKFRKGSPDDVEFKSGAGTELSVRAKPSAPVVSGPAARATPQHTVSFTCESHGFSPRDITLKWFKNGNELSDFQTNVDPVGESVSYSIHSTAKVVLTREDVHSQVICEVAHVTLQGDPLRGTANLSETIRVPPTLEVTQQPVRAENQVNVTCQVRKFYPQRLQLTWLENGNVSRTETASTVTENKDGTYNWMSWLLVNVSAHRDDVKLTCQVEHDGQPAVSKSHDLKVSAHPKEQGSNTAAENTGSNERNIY
Sequence of human SIRPα on monocyte-derived macrophages (P78324 31-504): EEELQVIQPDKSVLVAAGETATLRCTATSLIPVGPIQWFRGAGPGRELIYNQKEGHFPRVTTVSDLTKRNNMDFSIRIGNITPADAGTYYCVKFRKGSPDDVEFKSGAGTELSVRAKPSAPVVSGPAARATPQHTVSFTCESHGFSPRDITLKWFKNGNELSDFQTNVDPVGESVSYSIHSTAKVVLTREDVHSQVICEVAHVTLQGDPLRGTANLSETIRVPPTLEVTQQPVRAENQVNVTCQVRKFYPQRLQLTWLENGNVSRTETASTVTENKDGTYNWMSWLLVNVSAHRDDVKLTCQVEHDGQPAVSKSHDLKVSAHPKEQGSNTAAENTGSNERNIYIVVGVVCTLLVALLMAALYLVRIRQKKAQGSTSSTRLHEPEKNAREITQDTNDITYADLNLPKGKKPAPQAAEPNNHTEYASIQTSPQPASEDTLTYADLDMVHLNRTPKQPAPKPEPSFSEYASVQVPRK

B1: parental anti-hCLDN18.2 59F9E1 IgG1 antibody (antibody, V domains shown)
VH: QVQLVQSGAEVKKPGSSVKVSCKASGYTLTGYWIEWLRQRPGQGLEWMGEILLGSGSIKYNVKFKDRVTITADESTSTAYMELSSLRSEDTAVYYCARKGLRGNSFDYWGQGTLVTVSS
VL: DIVMTQSPSSLTVSLGEKATISCKSSQSLLNSGNQKSYLTWYQQKPGQPPKRLIYWASTRESGVPDRFSGSGSGTDFTLTISSLQAEDLAVYYCQNDYYYPFTFGQGTKVEIKR
notes: Humanized IgG1 with two Fab arms; also called aCLDN18.2; anti-hCLDN18.2 clone 59F9E1 IgG1 (WT)
One may read the EC50 as the midpoint of the concentration-response curve. A higher EC50 goes with a need for much substance. For B1, a half-maximal response in assay [1] (EC50) required 4.52 nM.

B2: anti-hSIRPα×anti-hCLDN18.2 bispecific antibody (bispecific antibody, human IgG1, kappa)
heavy 1: EVQLVESGGGLVKPGGSLRLSCAASGFTFSSYVMSWVRQTPGKGLEWVATISSGGTYTYYPDSVKGRFTLSRDNAKNSLYLQMNSLRAEDTAVYYCASQLTGSEFDYWGQGTTVTVSSASTKGPSVFPLAPSSKSTSGGTAALGCLVKDYFPEPVTVSWNSGALTSGVHTFPAVLQSSGLYSLSSVVTVPSSSLGTQTYICNVNHKPSNTKVDKKVEPKSCDKTHTCPPCPAPELLGGPSVFLFPPKPKDTLMISRTPEVTCVVVDVSHEDPEVKFNWYVDGVEVHNAKTKPREEQYNSTYRVVSVLTVLHQDWLNGKEYKCKVSNKALPAPIEKTISKAKGQPREPQVYTLPPCREEMTKNQVKLTCLVKGFYPSDIAVEWESNGQPENPYKTTPPVLDKDGSFFLYSKLTVDKSRWQQGNVFSCSVMHEALHNHYTQKSLSLSPGK
light 1: DIVLTQSPASLAVSLGERATISCRASESVDLYGTSFMHWYQQKPGQPPKLLIYRASNLESGVPDRFSGSGSRTDFTLTINPLQAEDVATYYCHQSSDELPWTFGGGTKVEIKRTVAAPSVFIFPPSDEQLKSGTASVVCLLNNFYPREAKVQWKVDNALQSGNSQESVTEQDSKDSTYSLSSTLTLSKADYEKHKVYACEVTHQGLSSPVTKSFNRGEC
heavy 2: QVQLVQSGAEVKKPGSSVKVSCKASGYTLTGYWIEWLRQRPGQGLEWMGEILLGSGSIKYNVKFKDRVTITADESTSTAYMELSSLRSEDTAVYYCARKGLRGNSFDYWGQGTLVTVSSASTKGPSVFPLAPSSKSTSGGTAALGCLVDDYFPEPVTVSWNSGALTSGVHTCPACLQSSGLYSLSSVVTVPSSSLGTQTYICNVNHKPSNTKVDKKVEPKSGDKTHTCPPCPAPELLGGPSVFLFPPKPKDTLMISRTPEVTCVVVDVSHEDPEVKFNWYVDGVEVHNAKTKPREEQYNSTYRVVSVLTVLHQDWLNGKEYKCKVSNKALPAPIEKTISKAKGQPREPQVCTLPPSREEMTKNQVDLTCLVDGFYPSDIAVEWESNGQPENDYGTTPPVLDDDGSFFLYSKLTVDKSRWQQGNVFSCSVMHEALHNHYTQKSLSLSPGK
light 2: DIVMTQSPSSLTVSLGEKATISCKSSQSLLNAGNQKSYLTWYQQKPGQPPKRLIYWASTRESGVPDRFSGSGSGTDFTLTISSLQAEDLAVYYCQNDYYYPFTFGQGTKVEIKRTVAAPSVFIFPPSDEQLKSGTAKVVCLLNNFYPREAKVQWKVDNALQSGNSCECVTEQDSKDSTYSLSSTLTLSKADYEKHKVYACEVTHQGLSSPVTKSFNRGES
notes: Four-chain heterodimeric IgG, one Fab arm for each target; made in ExpiCHO cells and purified on protein A; also called anti-hCLDN18.2×hSIRPα bispecific antibody; anti-hSIRPα×hCLDN18.2
The term Kd denotes the concentration at which binding is half-saturated. A low value points to a tighter complex. Usually koff stands for a measure of how fast the partners let go of each other. The low end stands for slow dissociation, the high end for fast dissociation. Broadly, the kon is a measure of how fast the partners come together. Read a low kon as slow association. For B2, it took 16.9 nM to reach a half-maximal effect in assay [1] (EC50). For the same molecule, the “EC50, ADCP killing of PaTu 8988s cells by monocyte-derived macrophages” value in assay [2] and in assay [3] was 0.172 nM each time. In addition, the Kd in assay [4] stood at 23.2 nM; in assay [5] it was 0.88 nM. Further, the dissociation rate constant (koff) in assay [4] worked out at 0.00732 s⁻¹; in assay [5], 0.00104 s⁻¹. For the same molecule, the kon was 329000 M⁻¹ s⁻¹ in assay [4] and 1.18e+06 M⁻¹ s⁻¹ in assay [5].

B3: parental anti-hSIRPα #24 IgG antibody (antibody, V domains shown)
VH: EVQLVESGGGLVKPGGSLRLSCAASGFTFSSYVMSWVRQTPGKGLEWVATISSGGTYTYYPDSVKGRFTLSRDNAKNSLYLQMNSLRAEDTAVYYCASQLTGSEFDYWGQGTTVTVSS
VL: DIVLTQSPASLAVSLGERATISCRASESVDLYGTSFMHWYQQKPGQPPKLLIYRASNLESGVPDRFSGSGSRTDFTLTINPLQAEDVATYYCHQSSDELPWTFGGGTKVEIKR
notes: Bivalent parental IgG; also called anti-SIRPα mAb; anti-hSIRPα clone #24 IgG (WT)
In assay [4], B3 showed a Kd of 22.3 nM, a koff of 0.0077 s⁻¹ and an on-rate (kon) of 346000 M⁻¹ s⁻¹. Besides, in assay [5], the equilibrium dissociation constant (Kd) worked out at 0.908 nM, the koff amounted to 0.00109 s⁻¹ and the association rate constant (kon) is 1.21e+06 M⁻¹ s⁻¹.
